Measured values taken from patent publication US20090186811A1 (published 2009).
No end group written: not given here.

T1: human Y5 receptor (human, UniProt Q15761 1-445)
T1 sequence (looked up): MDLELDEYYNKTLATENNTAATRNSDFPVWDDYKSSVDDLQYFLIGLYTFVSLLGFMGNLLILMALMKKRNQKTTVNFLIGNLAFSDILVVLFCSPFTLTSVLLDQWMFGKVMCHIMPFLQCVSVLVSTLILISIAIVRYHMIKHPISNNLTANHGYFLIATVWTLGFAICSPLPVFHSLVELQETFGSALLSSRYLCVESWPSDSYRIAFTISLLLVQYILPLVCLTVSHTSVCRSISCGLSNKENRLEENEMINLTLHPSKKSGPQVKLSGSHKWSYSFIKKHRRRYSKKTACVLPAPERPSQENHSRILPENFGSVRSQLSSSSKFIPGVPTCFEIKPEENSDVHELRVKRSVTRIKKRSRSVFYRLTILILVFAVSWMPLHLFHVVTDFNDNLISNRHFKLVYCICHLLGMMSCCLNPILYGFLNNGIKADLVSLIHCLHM

T2: human Y2 receptor (human, UniProt P49146 1-381)
T2 sequence (looked up): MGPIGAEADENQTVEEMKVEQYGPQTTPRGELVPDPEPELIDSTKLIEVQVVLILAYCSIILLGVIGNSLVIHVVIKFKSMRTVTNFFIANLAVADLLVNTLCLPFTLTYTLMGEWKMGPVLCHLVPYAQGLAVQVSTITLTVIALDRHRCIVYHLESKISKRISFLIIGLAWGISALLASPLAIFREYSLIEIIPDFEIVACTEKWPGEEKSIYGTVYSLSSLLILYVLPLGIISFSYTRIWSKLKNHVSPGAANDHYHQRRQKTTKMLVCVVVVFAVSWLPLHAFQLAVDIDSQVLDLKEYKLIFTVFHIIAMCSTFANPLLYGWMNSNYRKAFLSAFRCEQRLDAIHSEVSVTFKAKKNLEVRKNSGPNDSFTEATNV


Tests used:
human Y5 receptor [1] = target: T1, human Y5 receptor; experiment: cell-based or functional assay
human Y5 receptor [2] = target: T1, human Y5 receptor; experiment: competition binding, 125I-NPY displaced, COS-7 cells with human Y5
Description: (§1) Transfected COS-7 cells are transferred to culture plates one day after transfection at a density of 40×10^3 cells per well aiming at 5-8% binding of the radioactive ligand. […] Determinations are made in duplicate. Steady state binding is reached with the radioactive ligand under these conditions. EC50 values were calculated using a standard pharmacological data handling software, Prism 3.0 (graphPad Sofware, San Diego, USA).

human Y2 receptor = target: T2, human Y2 receptor; experiment: cell-based or functional assay
human Y4 receptor [3] = target: T3, human Y4 receptor (human, UniProt P50391 1-375); experiment: cell-based or functional assay
human Y4 receptor [4] = target: T3, human Y4 receptor; experiment: competition binding, 125I-PP displaced, COS-7 cells with human Y4
Description: as §1

T3 sequence (P50391 whole entry): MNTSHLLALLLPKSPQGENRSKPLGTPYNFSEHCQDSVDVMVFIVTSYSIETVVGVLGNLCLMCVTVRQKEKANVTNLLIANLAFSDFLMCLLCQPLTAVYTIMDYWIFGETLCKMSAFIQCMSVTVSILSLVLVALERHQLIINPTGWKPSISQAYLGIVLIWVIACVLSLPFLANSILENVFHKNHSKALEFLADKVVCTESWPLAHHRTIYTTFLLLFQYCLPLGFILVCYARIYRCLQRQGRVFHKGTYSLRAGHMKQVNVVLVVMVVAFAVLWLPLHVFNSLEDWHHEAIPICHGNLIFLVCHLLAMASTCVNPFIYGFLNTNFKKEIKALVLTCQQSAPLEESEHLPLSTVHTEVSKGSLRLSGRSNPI

| Binder | EC50 (inositol phosphate turnover) (human Y5 receptor [1]) [nM] | IC50 (human Y5 receptor [2]) [nM] | EC50 (inositol phosphate turnover) (human Y2 receptor) [nM] | EC50 (inositol phosphate turnover) (human Y4 receptor [3]) [nM] | IC50 (human Y4 receptor [4]) [nM] |
| --- | --- | --- | --- | --- | --- |
| KKKKKKRHYLNLVTRQRY-NH2 (also called [Lys]6-PYY25-36) [Lys-Lys-Lys-Lys-Lys-Lys-PYY25-36] | > 1000 | 429 | – | – | – |
| APLKPVYPGDNATPEQMAQYAADLRRYINMLTRQRY-NH2 [[Lys4,Gln34]PP] | 3.8 | 0.87 | 0.17 | 64 | 6 |
